Results on one protein are retold here after PMC7664933, “Enzyme Properties of a Laccase Obtained from the Transcriptome of the Marine-Derived Fungus Stemphylium lucomagnoense” (International Journal of Molecular Sciences, 2020).

Assay in all cases: spectrophotometric oxidation assay, Michaelis-Menten fit
Common to all, as to assay type: biochemical, Stemphylium lucomagnoense

Substrate in series [1]: CCn1c(=NN=c2sc3cc(S(=O)(=O)O)ccc3n2CC)sc2cc(S(=O)(=O)O)ccc21
Conditions: 50 mM sodium acetate, pH 4.0, 30 °C, free enzyme, pH 4.0. The source says: (§1) spectrophotometric oxidation assay, Michaelis-Menten fit on SlLac2

Substrate in series [2]: COc1cc(C=NN=Cc2cc(OC)c(O)c(OC)c2)cc(OC)c1O
Conditions: 50 mM sodium acetate, pH 6.0, 30 °C, free enzyme, pH 6.0.
From the text: as §1

Substrate in series [3]: COc1cccc(OC)c1O
Conditions: 50 mM sodium acetate, pH 5.0, 30 °C, free enzyme, pH 5.0.
From the text: as §1

B1: SlLac2 (Stemphylium lucomagnoense) (protein)
chain: AVLPVELPNPAPFTPKRDGLEERQSPASCINVGHTPKTRHCWAQGFTSSTDMYTSWPNTGVIRSYNLRLENTTCNPDGAGSRVCLLINGRFLGPTIVANWGDTIRVTVRNNLQSNGTSIHWHGFRMLNKNIQDGVNGITECALAPGDFKTYQFQATEYGTTWYHSHFSHQYGDGVVGTVIVNGPATANYDEDLGVMPITDWYYNTAFQAASIAFQNGQAGLGPPVGDNILINGTAKNAAGGGAWNRVTIQAGKRYRLRLVNTAVDTNMLVNLDGHPFQVIATDFVPINPYNTTHLQIGIGQRYDVIINANQTAGNYWFRATADGLCQSRNAREGRAIFTYQGQPVADPTSTAPTVPFTACLDPVTTPKIVKNVPSSTFAAQAKNLPVAFGPVAANGNTVLWTINGTSMIIDPGKPTIKYVAENNNSFPQSYNVVKVPATSASTWTYWVIQQAVGAPPIAHPIHLHGHDSYILGAGDGQFNAATHFSQLRFTNPPRRDVSQLKGNGWLVIAYPTDNPGAWLMHCHIAFHVGMGLSVQFLERKQQIVLPATGSEWYNNCNNWAAYKAGNTDVWPQDDSGLKKRWPPLIEDGSVL
notes: full-length mature laccase (592 residues; precursor 613 with 21-residue signal peptide replaced by A. niger glucoamylase 24-residue prepropeptide, correctly cleaved off); codon-optimised synthetic gene; secreted from Aspergillus niger D15#26; no tag; N-glycosylated, about 75 kDa by SDS-PAGE
Turning to B1, in series [1], the Michaelis constant (Km) was 20.6 ± 3.9 µM, the kcat was determined as 0.153 ± 0.0026 s⁻¹ and the kcat/Km was 7420 M⁻¹ s⁻¹. Further, in series [2], the Km amounted to 3.5 ± 0.57 µM, the kcat was 0.0074 ± 0.0002 s⁻¹ and the kcat/Km came out at 2110 M⁻¹ s⁻¹. Moreover, in series [3], the Km came to 24 ± 3.9 µM, the kcat was 0.0059 ± 0.0003 s⁻¹ and the catalytic efficiency (kcat/Km) worked out at 240 M⁻¹ s⁻¹.

One may read the Km as the concentration of substrate that gives half-maximal velocity. Usually kcat stands for the number of substrate molecules converted per active site and unit of time at saturation. As usually defined, the kcat/Km is the second-order rate constant that governs catalysis at low substrate concentration.
